Test results: patent US20200237928A1 (UNIVERSITY OF MIAMI, published 2020)
Side-chain parts run from the residue outwards. [ ]: non-standard residue; d: D form. Abu = CC[C@H](N)C(=O)O; Ahx = NCCCCCC(=O)O

How the values were obtained:
[1] = target: T1, recombinant mouse IL4Rα extracellular domain (Ile26-Arg233), cleaved by factor Xa from the IL4Rα/human IgG1 … (mouse, UniProt P16382 26-233); test: FACS; Alexa555-shRNA/4PD complexes titrated on IL4Rα-conjugated epoxybeads, 10 min at RT; apparent Kd; peptide conjugated to the dendrimer (4PD)
T1 construct: range 26-233; Factor Xa cleavage in the IEGRMD spacer may leave some spacer residues at the C-terminus; Covalently linked to M-450 epoxy beads; also called recombinant IL4Rα; IL4Rα conjugated epoxybeads
T1 sequence (looked up): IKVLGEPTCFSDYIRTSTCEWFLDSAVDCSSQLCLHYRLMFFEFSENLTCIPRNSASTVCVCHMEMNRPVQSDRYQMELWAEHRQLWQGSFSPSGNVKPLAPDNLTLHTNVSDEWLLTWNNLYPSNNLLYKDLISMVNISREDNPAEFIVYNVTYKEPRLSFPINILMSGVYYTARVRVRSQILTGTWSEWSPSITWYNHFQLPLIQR
Procedure: (§1) Epoxybeads were conjugated with recombinant IL4Rα and used as binding target of 4PD or of the targeting peptide. Briefly, the recombinant chimeric IL4Rα protein composed by the mouse IL4Rα (Ile26 Arg233) and the human IgG1 (Pro100 Lys330) linked by the IEGRMD spacer polypeptide and generated in the NSO myeloma cell line was purchased by R&D systems (Minneapolis, Minn., USA). The protein was treated for 24 hours with 1.5% w/w factor Xa (SIGMA. St. Louis, Mo., USA) in tris-HCl (20 mM) and NaCl (200 mM) to cleave the IL4Rα extracellular domain. Factor Xa was removed by the solution using the Factor Xa removal resin (QIAGEN, Valencia, Calif., USA) and following the manufacturer instruction. IgG-linker fraction was removed from the solution by using protein-A conjugated magnetic beads (Invitrogen, Carlsbad, Calif., USA). The purity obtained by this procedure assessed by SDS PAGE was higher than 95% with only trace of IgG (data not shown). The obtained IL4Rα fraction was linked to epoxy magnetic beads M-450 by an overnight (ON) incubation at room temperature (RT) of 20×10⁶ beads with 10 μg of protein in a final volume of 1 mL in a sodium phosphate buffer (pH:8.0). […] Correct conjugation was evaluated via FACs after labeling with an anti-IL4Rα antibody.
(§2) Next, the binding of the 4PD to the IL4Rα was evaluated. […] Beads were washed twice with PBS and the binding evaluated by FACS.

[2] = target: T1, recombinant mouse IL4Rα extracellular …; test: FACS on IL4Rα-conjugated epoxybeads; 4PD against the FITC-peptide
Procedure: as §1, §2

B1: 4PD: G5 PAMAM dendrimer conjugated to the IL4Rα targeting peptide (acetyl)-LQRLFRAFR[Abu]LD[Ahx]C(amide), loaded with Alexa555-conjugated shRNA (other)
peptide: Ac-LQRLFRAFR[Abu]LD[Ahx]C([m‑maleimidobenzoyl-G5 PAMAM dendrimer])-NH2
modifications: also: several peptide copies on one G5 PAMAM dendrimer, complexed with Alexa555-labelled shRNA
notes: Not a plain protein: several copies of the peptide sit on a G5 PAMAM dendrimer (28,826 Da), complexed electrostatically with Alexa555-labelled scrambled shRNA; also called Alexa555-shRNA/4PD complexes; 4PD/Alexa555 complexes
How did the Kd [1] turn out when B1 was run?
Its Kd is 3000 nM.

And the “fold increase of apparent Kd (avidity) against the free peptide” value [2]?
Its value is ~1000 times.
